Measured values reported in the nanobody polyreactivity screen of Harvey et al. (2022).

Assay: yeast display, Sf9 membrane polyspecificity reagent, FACS + sequencing; frameworks hold sequencing errors
Method in brief: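 Galactose-induced (36–48 hours) yeast carrying a synthetic nanobody display library were exposed to 10% biotinylated, detergent-solubilized Sf9 membrane reagent at 4 °C for 1 hour. FACS followed streptavidin microbead enrichment, using low and high (top ~1%) gates for expression (anti-HA) and reagent binding (streptavidin). Colony PCR, MiSeq 2 × 250 sequencing and CDR-length filtering followed. Labels for polyreactivity reflect the gate of origin.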
In the case of “QVQLVESGGGLVQAGGRLRLSCAASGSIFDIYAMGWYRQAPGKERELVASIRRRGGSTYYADSVKGRFTISRDNAKNTVYLQKNSLKPEDTAVYYSNARRVWLRTTGTNWPERGYWGQGTQVTVSS”, the “polyreactivity (PSR sort gate)” value was “high polyreactivity”. In the case of “QVQLVESGGGLVQAGGRLRLSCAASGSIFDRYAMGWYRQAPGKERELVAAITRSGGSTYYADSVKGRFTISRDNAKNTVYLQMNSLKPEDTAVYYCNKVYPPRSIPYDFCGQGTQVTVSS”, the “polyreactivity (PSR sort gate)” value was “low polyreactivity”. In the case of “QVQLVESGGGLVQAGGRLRLSCAASGSIFGKYAMGWYRQAPGKERELVAAISKGGGRTSYADSVKGRFTISRDNAKNTVYLQMNSLKPEDTAVYYCNRYTQYRDRSDNHWGQGTQVTVSS”, the “polyreactivity (PSR sort gate)” value was “high polyreactivity”. With “QVQLVESGGGLVQAGGRLRLSCAASGSIFLHNAMGWYRQAPGKERELVAAISGTGGRTYYADSVKGRFTISRDNAKNTVYLQMNSLKPEDTAVYYCAVVFYHRHSYYWGQGTQVTVSS” the “polyreactivity (PSR sort gate)” value was “high polyreactivity”. In the case of “QVQLVESGGGLVQAGGRLRLSCAASGSIFNRYAMGWYRQAPGKERELVAAISSTGSTYYADSVKGRFTISRDNAKNTVYLQMNSLKPEDTAVYYCNADATHDLLRVDTYEYWGQGTQVTVSS”, the “polyreactivity (PSR sort gate)” value was “low polyreactivity”. For “QVQLVESGGGLVQAGGRLRLSCAASGSIFQSYALAWYRQAPGKERELVAVITGGGGSTYYADSVKARFTISRDNAKNTVYLQMNSLKPEDTAVYYCNADFPSFGVIYSTRKDDSWGQGTQVTVSS”, the “polyreactivity (PSR sort gate)” value was “low polyreactivity”. For “QVQLVESGGGLVQAGGRLRLSCAASGSIFSKNVMGWYRQAPGKERELVAAISIGGRTYYADSVKGRFTISRDNAKNTVSLQLNSLKPEDTAVYYCNTRFAKRATVGRYDYWGQGTQVTVSS”, the “polyreactivity (PSR sort gate)” value was “high polyreactivity”. With “QVQLVESGGGLVQAGGRLRLSCAASGSIFYRNAMGWYRQAPGKERELVAAIRYSGDNTYYADSVKGRFTISRDNAKNTVYLQMNSLKPEDTAVYYCAADFPDYEYWGQGTQVTVSS” the “polyreactivity (PSR sort gate)” value was “high polyreactivity”. In the case of “QVQLVESGGGLVQAGGRLRLSCAASGSIFYSNAMGWYRQAPGKERELVARITWSGGSTYYADSVKGRFTISRDNAKNTVYLQMNSLKPEDTAVYYCNKVIFRYFTTRPTRTYEYWGQGTQVTVSS”, the “polyreactivity (PSR sort gate)” value was “low polyreactivity”. In the case of “QVQLVESGGGLVQAGGRLRLSCAASGSIFYYYAMGWYRQAPGTERELVAAISRGGNTYYADSVKGRFTNSRDNAKNTVYLQMNSLKPEDTAVYYCNARPPNKRYKYGYWGQGTQVTVSS”, the “polyreactivity (PSR sort gate)” value was “high polyreactivity”. With “QVQLVESGGGLVQAGGRLRLSCAASGSILGEYAMGLNRQANGKERELVAAISVGGCSTYYADSVKGRFTISRDNAKNTVYLQMNSLKPVDTAVYYCSAYDYQSEMYYWGQGTQVTVSS” the “polyreactivity (PSR sort gate)” value was “high polyreactivity”. In the case of “QVQLVESGGGLVQAGGRLRLSCAASGSSFVAYTMGWYRQAPGKERELVAAISRGGSTNYADSVKGRFTISRDNAKNTVYLQMNSLKPEDTAVYYCAAKVWDGQLLYYWGQGTQVTVSS”, the “polyreactivity (PSR sort gate)” value was “low polyreactivity”. In the case of “QVQLVESGGGLVQAGGRLRLSCAASGSTFAWSAMGWYRQAPGKERELVAGIWNTGRTYYADSVKGRFTISRDNAKNTVYLQMNSLKPEDTAVYYCAALYNSPNVTYYYWGQGTQVTVSS”, the “polyreactivity (PSR sort gate)” value was “high polyreactivity”. For “QVQLVESGGGLVQAGGRLRLSCAASGSTFKIYAMGWYRQAPGKERELVARITGRGGSTYYADSVKGRFTISRDNAKNTVYLQLNSLKPEDSAVYYCAARVYTYYYDLHKRFYWGHGTQVTVSS”, the “polyreactivity (PSR sort gate)” value was “high polyreactivity”. With “QVQLVESGGGLVQAGGRLRLSCAASGSTIGKYVMGLYRQAPGKERELVAAITNIAGSTYYADSVKGRFTISRDTAKNTVYVQLNSLNPEDTAVYYCAADIEEYYGFDDYDYSYNDYDYWGQGTQVTVSS” the “polyreactivity (PSR sort gate)” value was “high polyreactivity”. With “QVQLVESGGGLVQAGGRLRLSCAASGSTIGYYTMGWYRQAPGKERELVAAISWSGDSTYYADSVKGRFTISRDNAKNTVYLQMNSLKPEDTAVYYCAKVHYVRRGDSRYDYWGQGTQVTVSS” the “polyreactivity (PSR sort gate)” value was “high polyreactivity”. With “QVQLVESGGGLVQAGGRLRLSCAASGSTIRTYARGWYRQAPGKERELVAAITNSDGSTYYADSVKGRFTISRDNAKNTVYLQMYSLKPEDTAVYYCAAYYYPLGYDYWGQGTQVTVSS” the “polyreactivity (PSR sort gate)” value was “low polyreactivity”. For “QVQLVESGGGLVQAGGRLRLSCAASGSTLGRYAMGWYRQAPGKERELVASITWSDDSTYYADYVKGRFTISRDNAKNTVYLQMNSLKPEDTAVYYCAAAGNLYTYRFYYWGQGTQVTVSS”, the “polyreactivity (PSR sort gate)” value was “low polyreactivity”. In the case of “QVQLVESGGGLVQAGGRLRLSCAASGSTVRYYAMGGYRQAPVKERELVAAITSGGRTYYADSVKGRFTISRDNAKNTVYLQMNSLKPEDTAVYYCNARRYGSGMDYWGQGTQVTVSS”, the “polyreactivity (PSR sort gate)” value was “low polyreactivity”. In the case of “QVQLVESGGGLVQAGGRLRLSCAASGYIFDDKAMGWYRQAPGKERELVATNYADSVKGRFTISRDNAKNTVYLQMNSLKPEATAVYYCAAEAFYPWTSSRYIAYYYWGQGTQVTVSS”, the “polyreactivity (PSR sort gate)” value was “low polyreactivity”. In the case of “QVQLVESGGGLVQAGGRLRLSCAASGYIFPKNAMGWYRQAPGKERELVAAITGSGGSTYYADSVKGRFTISRDNAKNTVYLQMNSLKPEDTAVYYCAKRSWIEYDYWGQGTQVTVSS”, the “polyreactivity (PSR sort gate)” value was “low polyreactivity”. In the case of “QVQLVESGGGLVQAGGRLRLSCAASGYTFKFNAMGWYRQAPGKETELVAGITRGGGTYADSVKGRFTISRDNAKNTVYLQMNSLKPDDTAVSYCASAWGAPSRFFSAFDYWGQGTQVTVSS”, the “polyreactivity (PSR sort gate)” value was “low polyreactivity”. In the case of “QVQLVESGGGLVQAGGRLRLSCAASRRIFDYNDRGWYRQAPGKERELVAAINDDSRTNYADSVKGRFTISRDNAKNTVYLQMNSLKPEDTAVYYCNNVYGRSGIGFDYWGQGTQVTVSS”, the “polyreactivity (PSR sort gate)” value was “low polyreactivity”. With “QVQLVESGGGLVQAGGRLRLSCADSGLIIYYYAMGWYRQAPGKEREFVAAITSSGGSTSYADSVKGRFTISRDNAKNTVYLQMNSLKPEDTAVYYCAARSKSEGGYWGQCTQVTVSS” the “polyreactivity (PSR sort gate)” value was “high polyreactivity”. In the case of “QVQLVESGGGLVQAGGRLRLSCADSGRTYGSNAMGWYRQAPGKERELVAAISGGDTTNYADSVKGRFTISRDNAKNTVYLQMNSLKPEDTAVYYCATDLRPAYDYWGEGTQVTVSS”, the “polyreactivity (PSR sort gate)” value was “low polyreactivity”. In the case of “QVQLVESGGGLVQAGGRLRLSCASSGITFTFNAMGRYTQAPGKEMELVAAITWSGGSTFYADSVKGRFTISRDNAKNSVYLQMNSLIPEDTAVYYCARDTELYVRWLDYWGQGTQVTVSS”, the “polyreactivity (PSR sort gate)” value was “low polyreactivity”. With “QVQLVESGGGLVQAGGRLRLSCPPSGVTFTRNAMGWYRQAPGKERELVAAISSSAGSTSYADSVKGRLTISRDNAKNTVYLQMNSLKPEDTAVYYCATEGSYYSWVGKVGYRYQYHYWGHGTQVTVSS” the “polyreactivity (PSR sort gate)” value was “high polyreactivity”. In the case of “QVQLVESGGGLVQAGGRLRLSCSASGIILPKYTMGGYRQAPGKERELVAAITRSGGSTYYADSVKGRFTISRDNAKNTVYLHMISMKPEDTAVYYCAAERASFRYQDYYIYDYWGQGTEVTVSS”, the “polyreactivity (PSR sort gate)” value was “high polyreactivity”. For “QVQLVESGGGLVQAGGRLRLSCSASGSIFVTYDMGWYRQAPGKERELVAGISGSGSTNYADSVKGRFTISRDNAKNTVYLQMNSLKPEDTAVYYCAAEYEYLWSQYLTDYGYDYWGQGTQVTVSS”, the “polyreactivity (PSR sort gate)” value was “low polyreactivity”. With “QVQLVESGGGLVQAGGRLRLSCSASGSTFYPNAMGWYRQAPGKERELGAAISWSGGSTYYADSVKGRFTISRDNAKKTVDLQMNSLKPEDTAVYYCAAYYYGVRKYDYWGQGTQVTVSS” the “polyreactivity (PSR sort gate)” value was “high polyreactivity”.
